Values of other authors, collected in article PMC8369179.

Molecular target: RAGE 23-121 (Homo sapiens) (UniProt Q15109)
UniProt Q15109, sequence (Q15109 23-121): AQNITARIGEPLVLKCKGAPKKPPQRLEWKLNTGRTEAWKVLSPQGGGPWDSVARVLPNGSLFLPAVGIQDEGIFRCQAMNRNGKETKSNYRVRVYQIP

Substance: HMGB1 1-215 (from UniProt P09429)
- Kd: 48.3 nM
